Experimental data as given in patent CN106366186A (ATTOGEN BIOMEDICAL (SUZHOU) INC, dated 2017).
Substitutions are numbered along the chain they refer to.

B1: HPV16 E7单链抗体scFv001 (scFv, V domains shown)
VH: QSLEESGGRLVTPGTPLTLTCTASGSDISSYAISWVRQAPGKGLEWIGSISNSGNTYYASWAKGRFTIAKTSTTVTLKMTSLTTADTATYFCTRGAISGTPIWGPGTLVTVSS
VL: DPMLTQTASSVSAAVGGTVTISCQSSQSVYDNNWLGWYQQKPGQPPKLLIYSVSTLASGVPSRFKGSGSGTQFTLTISDLECDDAATYYCAGGFSGNIYTFGGGTNVEIK
B2: HPV16 E7兔单克隆抗体RAB-001 (antibody, V domains shown)
VH: B1 VH
VL: B1 VL
notes: also called RAB-01; anti-HPV16 E7单抗RAB-001
B3: HPV16 E7兔单克隆抗体RAB-034 (antibody, from another filing, V domains shown)
VH: QSLEESGGRLVTPGTPLTLTCTVSGIDLSSYAMGWVRQAPGEGLDWIGSIGSSGRTYYANWAKGRFTISKTSSTTVDLKMTSLTTEDTATYFCARGVVNRSDIWGPGTLVTVSS
VL: DPMLTQTASSVSAAVGGTVTISCQSSQSVYDNNWLGWYQQKPGQPPKLLIYGASNLESGVPSRFKGSGSGTQFTLTISDVQCDDAATYYCAGGYSGNRYVFGGGTEVVVK

How the values were obtained:
[1] = biological target: His-HPV16 E7重组蛋白 (HPV16) (UniProt P03129); assay: ELISA, scFv 5μg/ml on 0.1μg/ml coated antigen, anti-Flag-HRP; selection threshold
[2] = biological target: T1, His-HPV18 E7重组蛋白 (HPV18, UniProt P06788 1-105); assay: indirect ELISA, 0.5μg/ml coat, antibody 1μg/ml
T1 construct: also called His-HPV18 E7融合蛋白; not shown: His tag
T1 chain: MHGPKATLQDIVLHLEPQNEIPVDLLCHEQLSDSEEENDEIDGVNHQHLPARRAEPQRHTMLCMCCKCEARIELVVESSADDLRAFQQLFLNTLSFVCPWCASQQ

[3] = biological target: T2, 细胞内源的HPV18 E7蛋白 (HeLa, Siha cells) (HPV18, UniProt P06788 1-105); assay: immunocytochemistry, HeLa and Siha cells
T2 construct: whole, on cells; Intracellular protein detected by immunocytochemistry in fixed, permeabilised cells
T2 sequence: T1 chain with E73K

[4] = biological target: T3, 细胞内源的HPV16 E7蛋白 (CaSki, Siha cells, HPV16-positive cervical cells) (HPV16, UniProt P03129 1-98); assay: immunocytochemistry, CaSki cells
T3 construct: whole, on cells; Intracellular protein detected by immunocytochemistry in fixed, permeabilised cells; also called HPV16 E7内源蛋白
T3 sequence: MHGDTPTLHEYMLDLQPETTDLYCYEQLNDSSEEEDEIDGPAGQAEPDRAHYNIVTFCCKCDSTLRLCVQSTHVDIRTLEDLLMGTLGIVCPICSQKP

[5] = biological target: His-HPV16 E7重组蛋白 (HPV16) (UniProt P03129); assay: indirect ELISA, antibody 0.1μg/ml on 0.1μg/ml coat; threshold for a positive clone
[6] = biological target: T4, His-Vac (HPV16); assay: indirect ELISA on peptides
T4 peptide: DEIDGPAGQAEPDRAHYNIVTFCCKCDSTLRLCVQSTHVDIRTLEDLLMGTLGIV

| Binder | OD值 [1] [OD] | binding result [2] | binding result [3] | binding result [4] | OD值 [5] [OD] | binding result [6] |
| --- | --- | --- | --- | --- | --- | --- |
| B1 | > 2 | – | – | – | – | – |
| B2 | – | binds | binds | binds | > 1 | no binding (tested: antibody 1μg/ml, peptide coat 2μg/ml) |
| B3 | – | – | – | – | > 1 | – |
